Experimental findings from the DeepSol protein solubility set are described below.

The nature of this data set: soluble on expression in E. coli; label from the status in PepcDB or PDB records.
Turning to “MGSDKIHHHHHHDWLDLNTTSSVETGQAIVTLDDAQIALNGIYRLASGHSYYGDNYWYYGDCRAADVQARITKGDGKRVSPYYEYNVLASDNLNIVLPWNTVYKVIRQTNNLIQKIESGSIQSSDTKELNRIKSEALVMRGLSLFNLTRLFGMPYTNDKGASLGVPIETSPSDPTHKPSRSTVAQCYEQVVSDMSNALSGLRQETSNGYINYWAAQALLSRVYLNMGEYQKAYDAATDVIKNNGGRYQLYSYEEYPNVWGQDFQSESLFELYITLSEPSGGTGGEGAPMVYANEATVDWNNLILSEDFLNLLNEDPKDVRHCLTKESVIENNTGLPAAAMHEKVYLAKFPGKTGDDPKTNNICIIRLSEVYLNAAEAGLKKGTDIEEAQGYLNDIISRRTTDTSQQVSTETFTLDRILKERRKELVGEGEVFYDYLRNGLAIERKGSWHLETLKASNAQKIEATDLRIALPIPQSEIDANPNIQQNPR”, the “soluble on expression in E. coli” value is recorded as “not soluble”.

“MDLTASLEDDQREKLRQYTEFTHQQDYEVAIGTLASLNWNLEQAIEAHLMQEDKNDDEDPEILETIPAAASGRNAGASSSSRFEPEVINIEDDEMPATRGRRRGRAVTPDETTTVDNQVKRLRIDDGSSSSSNGAATHHRGAAIPRQKRGQATEPTPSSSGSSSASFSSRRGTRANPVPPPNQEPAHPESARQNGGILASRHNNHNNQQNNHHHHHQRIPINPRRVDVFNVDSDEDDDSMAIAYEDDDDGVHEVHHSEVCEKDRAISAFLAPKLGNEVVARGSGPPNGRIPMIPDGFSSVSDALRNFVAIFSDRFCSTPQTQAFMPPFYTEPLPAAVKEAFDHPNSEHRRPLLFYINHDRSIAANIFASQVLCSETVSTLIRHQYVLFPWDITSDSNLMLFLEYLQAANMGDVRTIIQRLAMSKIESFPLMAIVVKERNSYRLVDYCRGTDTSDQVMEKLLSGVSEYSDIRMNEQSERREREEREAIRNQQEAEYKASLAADKARMEAKQQEIEEQRLEEERKLREEEEECVRRQTVASTVPEEPPASAPLAEIINVKFRLPEGGQDMRRFRRLESIQTLINYLSSKGYSPDKFKYFNSDFPKKEITRHFDLSHNFADTKWPAREQIFVEEI”: the “soluble on expression in E. coli” value is reported as “not soluble”.

Consider “MFKILRKERLAPGINLFEIESPRIAKHAKPGQFVMIRLHEKGERIPLTIADVDISKGSITIVAQEVGKTTRELGTYEAGDYILDVLGPLGKPSHIDYFGTVVMIGGGVGVAEIYPVAKAMKEKGNYVISILGFRTKDLVFWEDKLRSVSDEVIVTTNDGSYGMKGFTTHALQKLIEEGRKIDLVHAVGPAIMMKAVAELTKPYGIKTVASLNPIMVDGTGMCGACRVTVGGEVKFACVDGPEFDAHLVDWDQLMNRLAYYRDLEKISLEKWERERRMV”, for which the “soluble on expression in E. coli” value is listed as “not soluble”.

Regarding “MGSDKIHHHHHHMFLYELFKEQRKLYNFTQEEFYEGIFKKRAASSFEVHNTHDLKVKDLPVLSDRSMMSILEIIHYAKEEFISPYDEDLNSLFDIFQNNTEKENKDYIYKLYKKSIELKEHSIIYWNLYLIIKIQCSEYDSRIVPTDSQDLSELKKMILSKQKFTLYDYKIVTNLSLVFSYKELQPFLSSLFPLDSNAPTVTSEAAYYLLENITTKLVQNRDFESCTEVLNIYNDLLQKFPSYKYKLNYLITYNLVGYFLTNNMDSLNNSIKYVDLLGDLENVELAKLMKDNIYLMISKKNNGSMSKPDTLLTKENNHIKLNEKKITKRLE”, the “soluble on expression in E. coli” value is on record as “not soluble”.

Regarding “MTAPGSMPLTVIGGFLGAGKTTLLNYLLKVQHSERVLVMVNDFGSINIDAELLDQGRHDRPGVVRLQNGCVCCSIGGDLMQAFLQVMSMPDRPDRIIVEASGVADPTRIAQIGRVSGGLSDEGVITLVDASAVRTLAADKYVGDIVRQQILSADIVLLNKLDLSSDAEIVETRAWLRDLAPRTRVVSCIHGEVDAVSVLGIGAGKVAPDAAGGPVDVPVPDLRRASTRHADTFHSSTLATAHRFDRRRIEYALDALPQTVLRGKGFVELEGEATPALLQLCGSRWTLDPVSTPAPPAGTHLVFIATGGRGVPRFDAPSHFEQALASRDAASADTSNLEHHHHHH”, the “soluble on expression in E. coli” value is on record as “soluble”.

Consider “MSLSQEMIKKWLDEEGFLRMEVPDENARFHYVVNYPEDHVIDIIQPAGKDDMILIACATSVSPEHQAGIRALSMEKRTEFIWKVRFTLNRFGVDFQLDHPENVLNSYLVTDEIFFDGLSKDRLISSIKNVFRAKLQVMWMIQERFGEERPEHDSMYVEGHHHHHH”, for which the “soluble on expression in E. coli” value is reported as “soluble”.

As to “MNSDDEIYMEGSASSEDDMDDECLSDDDGIARHDQSASDYLNKKDKDNEVLDHDSLEAEMKKAISEVEAVLQVKTGVCRILLHKYKWNKESLLERFYEHPDTIAFLIDAQVIPRQQEVIPAGDAECDICCSMDELSGLSCNHRACAECWQAYLTNKIVSDAQSEIECMAPNCKLLIEDEKVLSYISDPTMVSKYRKLMVASYVEINCLLRWCPGIDCGKAVKVSHWEPRLVVCSCGTCFCFSCGQNWHEPLNCRHLKKWIKKCQDDSETMNWINANTKDCPKCMIPIEKNGGCNRMLCTNSGCRYEFCWMCLEPWTKHGYQYACNGYDETAVKNPQDAQEISRANLKRYLFYFNRYMGHEQSLQLEGKLNIKVAKKMEQMENMSMSWIEVQFLRKAVDILSECRRTLMYTYAFAFYLKKDNNSIIFESNQANLEMETEQLSGFLERDLEDEDLVTLKQKVQDKYRYVEQRRKVLLDHCAEGAEQDIWQYND”, the “soluble on expression in E. coli” value is listed as “not soluble”.

With “MGSDKIHHHHHHMPEEIVTRVITFFFPYDSKVEGKNDCVDTYKIHTFPEYENSDWYRGDPRDHSNGQPNGHEMWGHGQIGWWQKDENGWHWYWEDESNMPRPTQGLSEIMSTTTTTGSPLSIYSTTPSDAPETYSDTVLSVVLGF”, the “soluble on expression in E. coli” value is listed as “not soluble”.

In the case of “MSLKSWVKMNSWTSEDTKAVKMWFDLDKYREFENISINMLYHEIWARTYFFKPVIEEGMQKTVLKNYMQILDGDPFLIKEKHLNYMDSENKSYQPPYFFITTVDRIANISFACMRKALFIRANTEQYKIDSTIENEYISEIIPEQFPTTIMLEIDLAGGSDDEIAEALRVSLPQWRKVKGVKPAPLDAVRFGYGAIKKLISYRIIPMLDLLAWSERKKVLLSDDRLSRLLYTDEDDDKAIRQGYHIRDADRPFAMKTVETDFLRQFNFFINKNQHVKEMRVSDVMKLSDSEGHHHHHH”, the “soluble on expression in E. coli” value is on record as “not soluble”.

Regarding “MGSSHHHHHHGKTIFVIVPTNEEQVAFLEALAKQDELNFDWQNPPTEPGQPVVILIPSDMVEWFLEMLKAKGIPFTVYVEEGGSENLYFQGGGGGGVRYVQRPWFSPLGFMASSPTAYAPMMTCIALALIFPFRYQISEYFERQRDGVHVELRRKAVKYYAEMERMHRRQALVNLESIQDDNAPHRLSAVLSVESIQAGHLDQEYNYWYAHERDAIRAEKLMMEIRELKAKMPADSA”, the “soluble on expression in E. coli” value was “not soluble”.

“MSLWEFYMPTDVFFGEKILEKRGNIIDLLGKRALVVTGKSSSKKNGSLDDLKKLLDETEISYEIFDEVEENPSFDNVMKAVERYRNDSFDFVVGLGGGSPMDFAKAVAVLLKEKDLSVEDLYDREKVKHWLPVVEIPTTAGTGSEVTPYSILTDPEGNKRGCTLMFPVYAFLDPRYTYSMSDELTLSTGVDALSHAVEGYLSRKSTPPSDALAIEAMKIIHRNLPKAIEGNREARKKMFVASCLAGMVIAQTGTTLAHALGYPLTTEKGIKHGKATGMVLPFVMEVMKEEIPEKVDTVNHIFGGSLLKFLKELGLYEKVAVSSEELEKWVEKGSRAKHLKNTPGTFTPEKIRNIYREALGVEGGSHHHHHH”: the “soluble on expression in E. coli” value is listed as “soluble”.

With “MTLHEVPTILHRCGDCPIRHRAVCARCDSEELATLEQIKYYRSYQAGQTVIWSGDKMDFVASVVTGIATLTQTMEDGRRQMVGLLLPSDFVGRPGRQTVAYDVTATTDLLMCCFRRKPFEEMMQKTPHVGQRLLEMTLDELDAAREWMLLLGRKTAREKIASLLAIIARRDAALKLRESNGPMTFDLPLTREEMADYLGLTLETVSRQVSALKRDGVIALEGKRHVIVTDFARLLEEAGDDSDGGLPV”, the “soluble on expression in E. coli” value is listed as “not soluble”.

Regarding “RRKQQAPRRAAAYVSEELKAAALVDEGLDPEEHTADGEPSAKYMCPEKELARACPSYQNSPAAEFSCHEMDSESHISETSDRMADFESGSIKNEEETKEVTVPLEDTTVSDSLEQMKAVYNNFLSNSYWSNLNLNLHQPSSEKNNGSSSSSSSSSSSCGSGSFDWHQSAMAKTLQQVSQSRMLPEPSLFSTVQLYRQSSKLYGSIFTGASKFRCKDCSAAYDTLVELTVHMNETGHYRDDNHETDNNNPKRWSKPRKRSLLEMEGKEDAQKVLKCMYCGHSFESLQDLSVHMIKTKHYQKVPLKEPVTPVAAKIIPATRKKASLELELPSSPDSTGGTPKATISDTNDALQKNSNPYITPNNRYGHQNGASYAWHFEARKSQILKCMECGSSHDTLQELTAHMMVTGHFIKVTNSAMKKGKPIVETPVTPTITTLLDEKVQSVPLAATTFTSPSNTPASISPKLNVEVKKEVDKEKAVTDEKPKQKDKPGEEEEKCDISSKYHYLTENDLEESPKGGLDILKSLENTVTSAINKAQNGTPSWGGYPSIHAAYQLPNMMKLSLGSSGKSTPLKPMFGNSEIVSPTKNQTLVSPPSSQTSPMPKTNFHAMEELVKKVTEKVAKVEEKMKEPDGKLSPPKRATPSPCSSEVGEPIKMEASSDGGFRSQENSPSPPRDGCKDGSPLAEPVENGKELVKPLASSLSGSTAIITDHPPEQPFVNPLSALQSVMNIHLGKAAKPSLPALDPMSMLFKMSNSLAEKAAVATPPPLQSKKADHLDRYFYHVNNDQPIDLTKGKSDKGCSLGSVLLSPTSTAPATSSSTVTTAKTSAVVSFMSNSPLRENALSDISDMLKNLTESHTSKSSTPSSISEKSDIDGATLEEAEESTPAQKRKGRQSNWNPQHLLILQAQFAASLRQTSEGKYIMSDLSPQERMHISRFTGLSMTTISHWLANVKYQLRRTGGTKFLKNLDTGHPVFFCNDCASQIRTPSTYISHLESHLGFRLRDLSKLSTEQINSQIAQTKSPSEKMVTSSPEEDLGTSYQCKLCNRTFASKHAVKLHLSKTHGKSPEDHLLYVSELEKQ”, the “soluble on expression in E. coli” value was “soluble”.

For the sequence “MSLTDNKTVPNGAPILYIVPTPIGNLGDITQRALDVLASVDMIAVEDTRHTGKLLAHFNISTKTFALHDHNEQQKAQVLVDKLLSGLSIALVSDAGTPLISDPGYHLVTQCRQAGVKVVPLPGPCAVITALSASGLPSDSFSFEGFLPAKSKARKDKLLEIAKVSRTCIFYESPHRICESLQDMLDVLGGEREVVLARELTKTFETIQGMPLAELITWIAEDDNRKKGEMVLLVHGYRDAGEQQLPDEALRTLTILTKELPLKKAAALVAEIHQLKKNALYKWGLENLGEEGHHHHHH”, the “soluble on expression in E. coli” value is “soluble”.

For the sequence “MKSGVIPSSAVGQKINEWYRYIRTFSVPDAEVLKAEIQQELKHMQHDSNLLLYYSLMEFRHQLMLDYLEPLEKLNIEDQPSLSELSRNIDSNQADLKGLLDYYVNFFRGMYEFDKREFISAITYYKQAEKKLSFVADHIERAEFYFKIAEAYYYMKQTYFSLINIKNAYEIYVEQETYNVRIIQCHFVFGVNLMDERNFEQAARHFKLALNMAQAEQKAQLVGRAYYNLGLCYYNQDLLDPAIDYFEKAVSTFESSRIVNSLPQAYFLITLIYYKQGKHDKASEYHKRGYEYAKETDDADYAVKFEFLQSLYLDQPNEEGIERCFQYLKNKNMYADIEDLALEVAKYYYEQKWFKLSASYFLQVEEARKQIQRSEGLYEIEI”, the “soluble on expression in E. coli” value is recorded as “soluble”.

Regarding “MWKNGAMRGCNKETGEFLGPSRSQQRRTALEVLVLSEKLAALTPAQLAKLPIPERLLPHITETKRITSHIARKRQLAFLAKQMRREDDTTLEAIREKLNASGIQAQREVATLHRTEQWRKRLLEEGDSALTELLNQYPQADCGKLRQLLRNSKTEQARNKAPQAFRELYQVLHGLIITQNSDNQHQTPQ”, the “soluble on expression in E. coli” value is on record as “soluble”.
